Residue numbers refer to the chain shown, from its start. One block for each molecule: values may come before it. Where no end group is shown, it is not given here.
B1: Recombinant TEAD1 (S210-D426) (domain or fragment)
chain: SIGTTKLRLVEFSAFLEQQRDPDSYNKHLFVHIGHANHSYSDPLLESVDIRQIYDKFPEKKGGLKELFGKGPQNAFFLVKFWADLNCNIQDDAGAFYGVTSQYESSENMTVTCSTKVCSFGKQVVEKVETEYARFENGRFVYRINRSPMCEYMINFIHKLKHLPEKYMMNSVLENFTILLVVTNRDTQETLLCMACVFEVSNSEHGAQHHIYRLVKD
B2: biotinylated WT VGLL4 peptide (residues 202-259) (peptide)
peptide: ATTCDPVVEEHFRRSLGKNYKEPEPAPNSVSITGSVDDHFAKALGDTWLQIKAAKDGA
modifications: also: biotinylated, position not given here
B3: biotinylated VGLL4 peptide (residues 202-259), TDU1 mutant (peptide)
peptide: B2 peptide with H11A, F12A
modifications: also: biotinylated, position not given here

Key:
TEAD1 = TEAD1 (Homo sapiens, UniProt P28347); experiment: SPR of recombinant TEAD1 and VGLL4 peptide with compound; format: binding
[1] = biological target: B2; experiment: SPR
[2] = biological target: B2; experiment: SPR; remark: listed apart in the source
[3] = biological target: B1; experiment: SPR

SPR of recombinant TEAD1 and VGLL4 peptide with compound; TEAD1 AP-MS in cells (TEAD1): ~ 2 fold change in VGLL4-TEAD1 KD
Molecule: GNE-7883

Molecule: B1
fold increase in affinity with VT-103 against DMSO [1]: ~12 fold
fold decrease of KD with GNE-7883 against DMSO [2]: ~2 fold

Molecule: B2
Kd [3]: ~500 nM

Molecule: B3
binding result [3]: binds

From article PMC12260418 (Proceedings of the National Academy of Sciences of the …, 2025)
